Tested on: K4 kissing-loop RNA reporter
Experiment: apparent KD of K4 kissing-loop reporter; higher = weaker reporter binding
Conditions: Eterna round: R107
Protocol: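 RNA-MaP round R107: designed RNA switches with theophylline, tryptophan, arginine or FMN aptamers are transcribed on-chip within common flanks. They are titrated with a labelled K4 kissing-loop RNA reporter in RNA-MaP buffer (100 mM Tris pH 7.5, 80 mM KCl, 4 mM MgCl2), without ligand or with the indicated ligand. Median apparent KD per design.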

[1] = input ligand: theophylline 20 uM
[2] = input ligand: tryptophan 2.4 mM
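Note: bound reporter read as fluorescence of individual clusters on recovered sequencing chips by microscopy, with normalized cluster intensities fitted with a binding model.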

Sequence | apparent KD of K4 kissing-loop reporter (input ligand: FMN 200 uM) [nM] | apparent KD of K4 kissing-loop reporter (input ligand: arginine 13.2 mM) [nM] | apparent KD of K4 kissing-loop reporter (input ligand: none) [nM] | apparent KD of K4 kissing-loop reporter [1] [nM] | apparent KD of K4 kissing-loop reporter [2] [nM]
UGCAGUGAUGUUGCUAUUUUUCUUGAUUAACGAGGACCGGUACGGCCGCCACUCGAUUUCUCUCUAAUCCAGUAUGUUGUUUAAU [whbob_EX_Tryp_A_t4] | 114 | 137 | 114 | 143 | 86.1
UGCAUGCUAGUAGUGAUGUUACAUGAUGAUACCAGUGCUUUUUUGCACCCUUGGCAGCGUCAUUUUGCAUGCACGUCGAAAGACG | 511 | 473 | 565 | 344 | 474
UGCGUCGGUUCAGAUACCAGCCAAUUAGAGUCGAGUGAUGUUCGACAUUGAACGUCCAAAGGCCCUUGGCAGCUGGAUUGAGGAU [Same State Theophylline B GF 21] | 211 | 104 | 114 | 189 | 87.3
UGCUCACAUAGAGGAUAUCUCAUAUGAGACAGUGAUGUUGUCUCAUAUAGACAUGUAAGUCUCAUGAGAGAAGGCUGUGUGAGCA [FMN B SS t8] | 140 | 106 | 117 | 99.3 | 113
UGGACCUGACUCGAUACGAGUCAAUGAGAUACCAGCCACGAAAGUGGCCCUUGGCAGCUCUGCCAGUGAUGUUGGUCAAGGUCCU [#SwitchBubble 9 #StaticStem] | 1540 | 1140 | 1530 | 765 | 1360
UGGACGUUAUACAAAUAGUAUAACUGGGAUACCAGUGACGAAAGUCACCCUUGGCAGCUCAACUGCCAGUGAUGUUGGUAGUCCA [Astros-Eli-mod#4] | 307 | 158 | 172 | 239 | 145
UGGAGGAAUCGACCUCGAAAGAGGAUGGAUACCAGAGAAGAAAUUCUCCCUUGGCAGCCAGUGAUGUUGGAACCUCCUAAAUAAA [#SwitchBubble 18 #K4Late] | 609 | 445 | 706 | 354 | 622
UGGAGUUGACGAAAAGUCAACUCCCGAGAAGGAGCGGACGAAAGUCCAGGUAGGUCGCUCGCUACCAGUGAUGUUGGUACUUUAA | 147 | 189 | 174 | 219 | 147
UGGAGUUGACGAAAAGUCAACUCCUGAGAAGGAGCGGACGAAAGUCCAGGUAGGUCGCUCACUACCAGUGAUGUUGGUACUUUAA | 228 | 285 | 320 | 361 | 222
UGGAGUUGACGAAAAGUCAACUCCUGAGAAGGAGCGGACGAAAGUCCAGGUAGGUCGCUCACUGCCAGUGAUGUUGGUAAAUAAA [#OpenEnded 1 - Direct theophylline transfer] | 89.5 | 175 | 113 | 144 | 82.8
UGGAGUUGACGAAAAGUCAACUCCUGAGAUACCAGUGACGAAAGUCACCCUUGGCAGCUCACUGCCAGUGAUGUUGGUAUAUAAA [#OpenEnded 4] | 82.6 | 71.4 | 61 | 146 | 124
UGGAGUUGACGAAAAGUCAACUCCUGAGAUACCAGUGACGAAGGUCACCCUUGGCAGCUCACUGCCAGUGAUGUUGGAAGAUAAA [whbob_SS_Theo_A_w47] | 273 | 292 | 303 | 396 | 174
UGGAGUUGACGAAAAGUCAACUCCUGAGAUACCAGUGACGAAGGUCACCCUUGGCAGCUCACUGCUAGUGAUGUUGGUAGUUAAA [whbob_SS_Theo_A_w50] | 1050 | 502 | 797 | 773 | 829
UGGCAGGUAUCGGCCGCCACUUUCUAGUACAUACGCAUAUCUUUACCAUCAGUGAUGUUGAUCAUAAGGACCGGGAUACAUCAGG [theeternabot_exclusion_KL_Trp_B_22] | 243 | 208 | 249 | 220 | 200
UGGGAUGUUAAAGGAUAUAGAAAGUGAUAUUAGAAAGUGAGUGAUGUUGAUGUAGGUGAUGAUAUGUUAGAAGGUUAACAAAACG [abcde] | 411 | 219 | 334 | 303 | 292
UGUACCGAGGCAGGAUAUGUCGUCGAAAGACGAAAUGGAGUGAUGUUCCUUAAACUGCGAAAGCAGACAGAAGGGCCUUGGUACU [FmnBS 29 G10+C76] | 132 | 179 | 175 | 202 | 160
UGUACCGAGUAAGGAUAUGUCGUCGAAAGACGAAAUGGAGUGAUGUUCCUUAAACUGCGAAAGCAGACAGAAGGUACUUGGUACU [FmnBS 29 A11+U75] | 139 | 217 | 233 | 224 | 203
UGUACCGAGUCAGGAUAUCAUAAUAAUCCAGUGAUGUUGGAAUAACCAGUACAAAAGUGCUGGCCUUGAGAAGGGACUUGGUACU [FmnBS 4 #SwitchBubble #StaticStem] | 179 | 140 | 177 | 157 | 147
UGUACCGAGUCAGGAUAUGGCGUCGAAAGACGAAAUGGAGUGAUGUUCCUUAUCUGCGAAAGCAGUCCAGAAGGGACUUGGUACU [FmnBS 27 #SwitchBubble #StaticStem #DoubleMagnetSystem] | 134 | 120 | 137 | 123 | 137
UGUACCGAGUCAGGAUAUGGCGUCGAAAGACGAAUCUUAGUGAUGUUAAGGAUCUGCGAAAGCAGUCCAGAAGGGACUUGGUACU [FmnBS 26 U37+A49] | 236 | 422 | 495 | 444 | 475
UGUACCGAGUCAGGAUAUGGCGUCGAAAGACGAAUCUUAGUGAUGUUAGGGAUCUGCGAAAGCAGUCUAGAAGGGACUUGGUACU [FmnBS 26 U37+U68] | 396 | 372 | 439 | 574 | 462

Sequence | apparent KD of K4 kissing-loop reporter (input ligand: FMN 200 uM) [nM] | apparent KD of K4 kissing-loop reporter (input ligand: arginine 13.2 mM) [nM] | apparent KD of K4 kissing-loop reporter (input ligand: none) [nM] | apparent KD of K4 kissing-loop reporter [1] [nM] | apparent KD of K4 kissing-loop reporter [2] [nM]
UGUACCGAGUCAGGAUAUGGUAUAGCGGAAACGCACCAGUGAUGUUGGACGCGAAAGCGAUAAAAUCCAGAAGGGACUUGGUACU [FmnBS 20 #SwitchBubble #StaticStem #DoubleMagnetSystem] | 184 | 224 | 209 | 221 | 207
UGUCAUGGAAACAUGAACGUUGAUGUUCGACGAGGACCGGUACGGCCGCCACUCGAGUAAUAGUCAGUGAUGUUGACUUGUUUAA [KL-SSTryp-A form1 sub4] | 49.4 | 101 | 69.1 | 90.9 | 55.6
UGUCAUUGGUCGGCCGCCACUAGACGGACAUAAGUCUGUCAAUAAAGAGUGAUGUUCUUAAAUAAUAGGACCGGGACCGAUGACU [TrypBS 28 #SwitchBubble #StaticStem] | 527 | 458 | 451 | 503 | 201
UGUCAUUGGUCGGCCGCCACUAGGACCGGGUAUAACCCAGUGAUGUUGGUAAAUACGGCCGCCACUAGGACCGGGACCGAUGACU [TrypBS 14 #DoubleAptamer #SwitchBubble #K4Middle] | 263 | 233 | 255 | 280 | 173
UGUCAUUGGUCGGCCGCCACUGGACCGGGUAUAAUCCCAGUGAUGUUGGUAAAAUACGGCCGCCACAGGACCGGGACCGAUGACU [TrypBS 15 #DoubleAptamer #SwitchBubble #K4Middle] | 234 | 208 | 240 | 215 | 134
UGUCAUUGGUCGGCCGCCACUUCAAAGAGAGUGAUGUUCUUAAAGACGGAUCGAAAGAUCUGUCGAAGGACCGGGACCGAUGACU [TrypBS 17 #SwitchBubble #StaticStem] | 1770 | 973 | 1110 | 1200 | 285
UGUCAUUGGUCGGCCGCCACUUCAGGUCAAAGACCAGAGUGAUGUUCUUGCACAAAGUGCUUAAGAAGGACCGGGACCGAUGACU [TrypBS 14 #SwitchBubble #K4Middle] | 256 | 53.5 | 63.3 | 69.5 | 1060
UGUCAUUGGUCGGCCGCCACUUCAUAAAGAGUGAUGUUCUGAAAGACGGAUCGAAAGAUCUGUCGGAGGACCGGGACCGAUGACU [FiskerMod 2 - Jieux - Same State - Tryptophan B] | 1450 | 587 | 1440 | 686 | 397
UGUCAUUGGUCGGCCGCCACUUCGUGUGGAGUGAUGUUUUGUAGGACGGAUCGAAAGAUCUGUCGAAGGACCGGGACCGAUGACU [FiskerMod 19 - Jieux - Same State - Tryptophan B] | 96.8 | 85.8 | 87.6 | 33.5 | 285
UGUCAUUGGUCGGCCGCCACUUGAAGGUCAAAGACCAUAGAGUGAUGUUCUAAGACGAAAGUCACGAGGACCGGGACCGAUGACU [TrypBS 4 #SwitchBubble #K4Middle] | 57.7 | 195 | 114 | 351 | 1130
UGUCAUUGGUCUGAUACCAGAAGAAAUCUGGAGUGAUGUUCCGAGUACGACAAAAGUCGCUUCCCUUGGCAGCAGACCGAUGACU [TheoBS 22 #SwitchBubble 13 #StaticStem] | 235 | 198 | 198 | 161 | 207
UGUCAUUGGUCUGAUACCAGAUGAUAAUCUGGAGUGAUGUUCCAAGAACGACAAAGUCGCAUCCCUUGGCAGCAGACCGAUGACU [TheoBS 18 #SwitchBubble 13 #StaticStem] | 312 | 151 | 236 | 526 | 238
UGUCAUUGGUCUGAUACCAGCUGAUCGGAAACGAUCAUGCUGGAGUGAUGUUCCAGGAAAAGCCCUUGGCAGCAGACCGAUGACU [TheoBS 11 #SwitchBubble #StaticStem] | 474 | 248 | 121 | 405 | 195
UGUCAUUGGUCUGAUACCAGCUUGAUCGGUAAACGAUCUACUGGAGUGAUGUUCCUAAAUAGCCCUUGGCAGCAGACCGAUGACU [TheoBS 4 #SwitchBubble #StaticStem] | 197 | 157 | 180 | 123 | 173
UGUCAUUGGUCUGAUACCAGUUAGACCGAUAAGGUCAAAACUGGAGUGAUGUUCCCAAAUAACCCUUGGCAGCAGACCGAUGACU [TheoBS 5 #SwitchBubble #StaticStem] | 452 | 116 | 185 | 249 | 241
UGUCAUUGGUCUGAUACCAGUUGAUAAACUGGAGUGAUGUUCCAAUCGAGAUAACUCGACAACCCUUGGCAGCAGACCGAUGACU [TheoBS 15 #SwitchBubble 13 #StaticStem] | 182 | 173 | 176 | 128 | 168
UGUGAACAAAAGUAGAGUGGACCACUAUAGCGAGGACCGGUACGGCCGCCACUCGUAUAUGAAUUCAGUGAUGUUGAAAAGAGCU [whbob_EX_Tryp_A_t10] | 180 | 281 | 231 | 306 | 165
UGUGAUGUGUAGUGUUAUGUUUUGAGGGAUACCAGAGUCUUUUUAUUCCCUUGGCAGCUUGAGUGAUGUUUGAUGCUGUUGUUGU [dvccmullin] | 463 | 342 | 412 | 431 | 339
UGUGCCAACAGCGAUACCAGCCCGGCAGUGAUGUUGCCGGACGGAGUGAUGUUCCGGCAGGGCCCUUGGCAGCGCAGAAGCGCGA [Exclusion Theophylline B Gf 28] | 215 | 222 | 261 | 432 | 202
UGUGCUGUGUAGUGUAAUGUUUUGCGGGAUACCAGAGUCUUUUUAUUCCCUUGGCAGCUUGAGUGAUGUUUGAUGCUGUUCUUGU [bbtbmullin] | 376 | 322 | 356 | 336 | 313

Source: the supplement of paper PMC9170038
